Consider three molecules from patent US10072299B2, “Antibodies against epidermal growth factor receptor (EGFR) and uses thereof” (Merrimack Pharmaceuticals, Inc., priority 2011, dated 2018).

The conditions of assay [1]: conversion of irinotecan by nonspecific carboxylesterases; cited from earlier work.
Another assay has as its system phospho-EGFR. Put plainly: phospho-EGFR ELISA in A431 cells. Format: cell-based, human. Conditions: EGF stimulated. In general terms: In an ELISA, binding on a coated surface is turned into a signal by an enzyme label.
Another assay relates to phospho-ERK. Put plainly: phospho-ERK ELISA in A431 cells. Format: cell-based, human.
The next assay has as its target mouse EGFR (Mus musculus, UniProt Q01279). The assay can be described thus: Cross reactivity with mouse EGFR. The class given is binding.

Method for phospho-ERK: Cells are serum starved in 1% FBS medium with antibiotics and 2 mM L-glutamine for about 20 hours at 37° C. and 5% carbon dioxide. Cells are then preincubated with varying concentrations of anti-EGFR antibodies for 2 hrs, and then stimulated with human EGF ligand (50 ng/ml) (PeproTech, cat # AF-100-15) for 10 minutes at 37° C. and 5%/carbon dioxide. […] Lysates are either analyzed immediately by ELISA for ERK (a downstream effector of EGFR) and EGFR phosphorylation, or frozen at −80° C. until use.
The phospho-ERK ELISA is performed similarly to the phospho-EGFR ELISA with the following changes: Human pERK ELISA Duoset kit is purchased from R&D Systems (cat# DYC1018-5) and used as recommended by the manufacturer.
A431 cells were treated with a dilution series of antibody and phospho-ERK inhibition measured by ELISA.
Experiments were performed with rhEGF (PeproTech) dosed at a concentration of 50 ng/mL or 500 ng/mL.

Consider `CCc1c2c(nc3ccc(O)cc13)-c1cc3c(c(=O)n1C2)COC(=O)[C@]3(O)CC` [SN-38, 7-Ethyl-10-hydroxy-camptothecin], for which the “activity of metabolite relative to irinotecan” value in assay [1] was 100-1000 fold.

B1: P3X: affinity matured anti-EGFR monoclonal antibody (Bin3) of parental ch; VH SEQ ID NO: 23, VL SEQ ID NO: 24 (antibody, V domains shown)
VH: MGFGLSWLFLVAILKGVQCQVQLVQSGAEVKKPGASVKVSCKASGYAFTSYGINWVRQAPGQGLEWMGWISAYNGNTYYAQKLRGRVTMTTDTSTSTAYMELRSLRSDDTAVYYCARDLGGYGSGSVPFDPWGQGTLVTVSS
VL: MGTPAQLLFLLLLWLPDTTGEIVMTQSPATLSVSPGERATLSCRASQSVSSNLAWYQQKPGQAPRLLIYGASTRATGIPARFSGSGSGTEFTLTISSLQSEDFAVYYCQDYRTWPRRVFGGGTKVEIK
For B1, the “phospho-EGFR inhibition, single antibody (in words)” value in the assay with phospho-EGFR is reported as “partial phospho-EGFR inhibition”.

B2: P1X: affinity matured anti-EGFR monoclonal antibody (Bin1) of parental ca; VH SEQ ID NO: 19, VL SEQ ID NO: 20 (antibody, V domains shown)
VH: MGFGLSWLFLVAILKGVQCQVQLVQSGAEVKKPGSSVKVSCKASGGTFSSYAISWVRQAPGQGLEWMGSIIPIFGTVNYAQKFQGRVTITADESTSTAYMELSSLRSEDTAVYYCARDPSVNLYWYFDLWGRGTLVTVSS
VL: MGTPAQLLFLLLLWLPDTTGDIQMTQSPSTLSASVGDRVTITCRASQSISSWWAWYQQKPGKAPKLLIYDASSLESGVPSRFSGSGSGTEFTLTISSLQPDDFATYYCQQYHAHPTTFGGGTKVEIK
In the case of B2, the “phospho-ERK inhibition with 80 nM EGF (in words)” value in the assay with phospho-ERK (80 nM of EGF ligand) is recorded as “partial”. Moreover, the “phospho-ERK inhibition (in words)” value in the assay with phospho-ERK (EGF 50 ng/ml, dilution series) is recorded as “dose-dependent inhibition of phospho-ERK activity”. Also, in the assay with mouse EGFR, the “cross reaction with (binding to) mouse EGFR” value is given as “cross reacts with (binds to) mouse EGFR”.
